This series deals with the molecule itself. Nature of the series: DSSO chemical crosslinking in HEK 293T cells. From the text:
Applicant tested if endogenous NANOG could spontaneously assemble in H9 human embryonic stem cells (ESCs) as well as nucleofected NANOG in differentiated HEK 293T mammalian cells.

B1: NANOG ΔWR deletion mutant expressed in HEK 293T cells (other, human, UniProt Q9H9S0 1-305, looked up)
chain: MSVDPACPQSLPCFEASDCKESSPMPVICGPEENYPSLQMSSAEMPHTETVSPLPSSMDLLIQDSPDSSTSPKGKQPTSAEKSVAKKEDKVPVKKQKTRTVFSSTQLCVLNDRFQRQKYLSLQQMQELSNILNLSYKQVKTWFQNQRMKSKRWQKNNWPKNSNGVTQKASAPTYPSLYSSYHQGCLVNPTGNLPMYNCGEESLQSCMQFQPNSPASDLEAALEAAGEGLNVIQQTTRYFSTPQTMDLFLNYSMNMQPEDV
notes: whole, on cells; also called WR mutants
Turning to B1, the binding result is “no binding”.

The values are drawn from US20240383953A1 (BAYLOR COLLEGE OF MEDICINE, published 2024).
